Source: patent publication US20260216326A1 (PROMETHEUS BIOSCIENCES, published 2026)
Changes are numbered by the printed parent chain.

B1: A55 (antibody, human IgG1, V domains shown)
VH: EVQLVQSGAEVKKPGASVKVSCKASGFDIQDTYMHWVKQRPGQGLEWIGRIDPASGHTKYDPKFQVRATITTDTSTSTAYLELSSLRSEDTAVYYCARSGGLPDVWGQGTTVTVSS
VL: EIVLTQSPGTLSASPGERATMSCRASSSVSYMYWYQQKPGQAPRPWIYATSNLASGVPDRFSGSGSGTDYTLTISRVEPEDFAVYYCQQWSGNPRTFGGGTKLEIK
notes: human IgG1/kappa (pFuse vectors), culture supernatant
B2: A47 (antibody, human IgG1, V domains shown)
VH: B1 VH with E1Q, A68V, I70M, T72R
VL: B1 VL
notes: as for B1
B3: A43 (antibody, human IgG1, V domains shown)
VH: B1 VH with E1Q, T72R
VL: B1 VL
notes: as for B1
B4: A54 (antibody, human IgG1, V domains shown)
VH: B1 VH with E1D
VL: B1 VL
notes: as for B1
B5: A46 (antibody, human IgG1, V domains shown)
VH: B1 VH with E1Q, I70M, T72R
VL: B1 VL
notes: as for B1
B6: A51 (antibody, human IgG1, V domains shown)
VH: B1 VH with E1Q
VL: B1 VL with V77L
notes: as for B1
B7: A45 (antibody, human IgG1, V domains shown)
VH: B1 VH with E1Q, A68V, T72R
VL: B1 VL
notes: as for B1
B8: A49 (antibody, human IgG1, V domains shown)
VH: B1 VH with E1Q
VL: B1 VL with P45L, W46L
notes: as for B1
B9: A56 (antibody, human IgG1, V domains shown)
VH: B1 VH with E1Q
VL: B1 VL with V57I
notes: as for B1
B10: A52 (antibody, human IgG1, V domains shown)
VH: B1 VH with E1Q
VL: B1 VL with Y70F, V77L
notes: as for B1
B11: A42 (antibody, human IgG1, V domains shown)
VH: B1 VH with E1Q, I70M
VL: B1 VL
notes: as for B1
B12: A50 (antibody, human IgG1, V domains shown)
VH: B1 VH with E1Q
VL: B1 VL with Y70F
notes: as for B1
B13: A53 (antibody, human IgG1, V domains shown)
VH: B1 VH with E1Q, A68V, I70M
VL: B1 VL
notes: as for B1
B14: A48 (antibody, human IgG1, V domains shown)
VH: B1 VH with E1Q
VL: B1 VL with M21L
notes: as for B1
B15: A221 (antibody, IgG1, V domains shown)
VH: B1 VH with E1Q, I48M, T72R
VL: B1 VL with A13L, M21L, W46L, V57I, Y70F, V77L, S91E
B16: A164 (antibody, IgG1, V domains shown)
VH: B1 VH with E1Q, K38R, I48M, A68V, I70M
VL: B1 VL with A13L, M21L, P45L, W46L, V57I, Y70F, V77L, S91K
B17: A177 (antibody, IgG1, V domains shown)
VH: B1 VH with E1Q, K38R, R40A, I48M, T58I, V66G, A79V, L81M, V105W
VL: B1 VL with A13L, M21L, W46L, V57I, Y70F, V77L, S91E
B18: A162 (antibody, IgG1, V domains shown)
VH: B1 VH with E1Q, K38R, I48M, A68V, A79V, L81M
VL: B1 VL with A13L, M21L, P45L, W46L, V57I, Y70F, V77L, S91K
B19: A158 (antibody, IgG1, V domains shown)
VH: B1 VH with E1Q, I48M, A68V, T72R, A79V, L81M
VL: B1 VL with A13L, M21L, P45L, W46L, V57I, Y70F, V77L, S91K
B20: A173 (antibody, IgG1, V domains shown)
VH: QVQLVQSGAEVKKPGASVKVSCKASGFDIQDTYMHWVKQAPGQGLEWMGRIEPASGHIKYDPKFQGRATMTRDTSTSTVYMELSSLRSEDTAVYYCARSGGLPDWWGQGTTVTVSS
VL: B1 VL with A13L, M21L, V57I, Y70F, V77L, S91E
B21: A181 (antibody, IgG1, V domains shown)
VH: B1 VH with E1Q, K38R
VL: B1 VL with A13L, M21L, P45L, W46L, V57I, Y70F, V77L, S91E
B22: A157 (antibody, IgG1, V domains shown)
VH: B1 VH with E1Q, I48M, A68V, T72R, A79V
VL: B1 VL with A13L, M21L, P45L, W46L, V57I, Y70F, V77L, S91K
B23: A186 (antibody, IgG1, V domains shown)
VH: B1 VH with E1Q, I70M
VL: B1 VL with A13L, M21L, P45L, W46L, V57I, Y70F, V77L, S91E
B24: A163 (antibody, IgG1, V domains shown)
VH: B1 VH with E1Q, K38R, I48M, A68V, L81M
VL: B1 VL with A13L, M21L, P45L, W46L, V57I, Y70F, V77L, S91K
B25: A167 (antibody, IgG1, V domains shown)
VH: B1 VH with E1Q, A68V, T72R
VL: B1 VL with A13L, M21L, V57I, Y70F, V77L, S91E
B26: A168 (antibody, IgG1, V domains shown)
VH: B1 VH with E1Q, I70M, T72R
VL: B1 VL with A13L, M21L, V57I, Y70F, V77L, S91E
B27: A172 (antibody, IgG1, V domains shown)
VH: B20 VH with K38R, E52D
VL: B1 VL with A13L, M21L, V57I, Y70F, V77L, S91E
B28: A178 (antibody, IgG1, V domains shown)
VH: B20 VH with K38R, E52D
VL: B1 VL with A13L, M21L, W46L, V57I, Y70F, V77L, S91E
B29: A159 (antibody, IgG1, V domains shown)
VH: B1 VH with E1Q, I48M, A68V, T72R, L81M
VL: B1 VL with A13L, M21L, P45L, W46L, V57I, Y70F, V77L, S91K
B30: A180 (antibody, IgG1, V domains shown)
VH: B20 VH with K38R, V79A
VL: B1 VL with A13L, M21L, W46L, V57I, Y70F, V77L, S91E
B31: A165 (antibody, IgG1, V domains shown)
VH: B1 VH with E1Q, K38R, R40A
VL: B1 VL with A13L, M21L, V57I, Y70F, V77L, S91E
B32: A171 (antibody, IgG1, V domains shown)
VH: B20 VH with K38R, E52D, M70I, R72T
VL: B1 VL with A13L, M21L, V57I, Y70F, V77L, S91E
B33: A174 (antibody, IgG1, V domains shown)
VH: B20 VH with K38R, V79A
VL: B1 VL with A13L, M21L, V57I, Y70F, V77L, S91E
B34: A175 (antibody, IgG1, V domains shown)
VH: B20 VH with E52D, A68V
VL: B1 VL with A13L, M21L, W46L, V57I, Y70F, V77L, S91E
B35: A161 (antibody, IgG1, V domains shown)
VH: B1 VH with E1Q, K38R, I48M, A68V, A79V
VL: B1 VL with A13L, M21L, P45L, W46L, V57I, Y70F, V77L, S91K
B36: A185 (antibody, IgG1, V domains shown)
VH: B1 VH with E1Q, I70M, T72R
VL: B1 VL with A13L, M21L, P45L, W46L, V57I, Y70F, V77L, S91E
B37: A184 (antibody, IgG1, V domains shown)
VH: B1 VH with E1Q, T72R
VL: B1 VL with A13L, M21L, P45L, W46L, V57I, Y70F, V77L, S91E
B38: A169 (antibody, IgG1, V domains shown)
VH: B20 VH with E52D, A68V
VL: B1 VL with A13L, M21L, V57I, Y70F, V77L, S91E
B39: A183 (antibody, IgG1, V domains shown)
VH: B1 VH with E1Q, I48M
VL: B1 VL with A13L, M21L, P45L, W46L, V57I, Y70F, V77L, S91E
B40: A156 (antibody, IgG1, V domains shown)
VH: B20 VH with K38R, G66V
VL: B1 VL with A13L, M21L, V57I, Y70F, V77L, S91E
B41: A160 (antibody, IgG1, V domains shown)
VH: B1 VH with E1Q, I48M, A68V, I70M, T72R
VL: B1 VL with A13L, M21L, P45L, W46L, V57I, Y70F, V77L, S91K
B42: A166 (antibody, IgG1, V domains shown)
VH: B1 VH with E1Q, A68V, I70M
VL: B1 VL with A13L, M21L, V57I, Y70F, V77L, S91E
B43: A176 (antibody, IgG1, V domains shown)
VH: B20 VH with K38R, E52D, A68V, V79A
VL: B1 VL with A13L, M21L, W46L, V57I, Y70F, V77L, S91E
B44: A182 (antibody, IgG1, V domains shown)
VH: B1 VH with E1Q, R40A
VL: B1 VL with A13L, M21L, P45L, W46L, V57I, Y70F, V77L, S91E
B45: A170 (antibody, IgG1, V domains shown)
VH: B20 VH with K38R, E52D, A68V, V79A
VL: B1 VL with A13L, M21L, V57I, Y70F, V77L, S91E
B46: A179 (antibody, IgG1, V domains shown)
VH: B20 VH
VL: B1 VL with A13L, M21L, W46L, V57I, Y70F, V77L, S91E

Each binder was assayed against T1, human TL1A (Fitzgerald #30R-AT070) (human, UniProt O95150 72-251, limits assumed) (assay: ELISA titration, coated human TL1A, culture supernatant).
T1 construct: Coated on the ELISA plate at 1 ug/mL; also called TNFSF15
T1 sequence (looked up): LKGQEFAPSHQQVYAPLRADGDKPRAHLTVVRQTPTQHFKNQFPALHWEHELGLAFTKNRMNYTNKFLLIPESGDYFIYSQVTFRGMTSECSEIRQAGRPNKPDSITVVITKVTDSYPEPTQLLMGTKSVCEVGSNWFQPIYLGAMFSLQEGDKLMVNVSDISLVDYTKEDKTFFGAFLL

Row | Binder | Kd [pM]
1 | B1 | 91
2 | B2 | 82
3 | B3 | 51
4 | B4 | 83
5 | B5 | 63
6 | B6 | < 50
7 | B7 | 85
8 | B8 | 92
9 | B9 | 116
10 | B10 | 27
11 | B11 | < 50
12 | B12 | 19
13 | B13 | 126
14 | B14 | 76

What follows are binders tested against T2, human TL1A (human, UniProt O95150 72-251, limits assumed) (assay: ELISA titration on plate-coated human TL1A, unpurified culture supernatant).
T2 construct: also called tumor necrosis factor-like cytokine 1A; TNFSF15
T2 sequence (looked up): T1 sequence (looked up)

Row | Binder | Kd [pM]
15 | B15 | 51
16 | B16 | 58
17 | B17 | 52
18 | B18 | 75
19 | B19 | 66
20 | B20 | 40
21 | B21 | 60
22 | B22 | 69
23 | B23 | 67
24 | B24 | 51
25 | B25 | 42
26 | B26 | 62
27 | B27 | 40
28 | B28 | 43
29 | B29 | 69
30 | B30 | 58

Row | Binder | Kd [pM]
31 | B31 | 59
32 | B32 | 50
33 | B33 | 43
34 | B34 | 45
35 | B35 | 72
36 | B36 | 56
37 | B37 | 61
38 | B38 | 47
39 | B39 | 65
40 | B40 | 94
41 | B41 | 94
42 | B42 | 57
43 | B43 | 48
44 | B44 | 67
45 | B45 | 49
46 | B46 | 79
